# B1: recombinant human lactoferrin (protein, UniProt P02788 20-710, looked up)
# Lactotransferrin: GRRRSVQWCAVSQPEATKCFQWQRNMRKVRGPPVSCIKRDSPIQCIQAIAENRADAVTLDGGFIYEAGLAPYKLRPVAAEVYGTERQPRTHYYAVAVVKKGGSFQLNELQGLKSCHTGLRRTAGWNVPIGTLRPFLNWTGPPEPIEAAVARFFSASCVPGADKGQFPNLCRLCAGTGENKCAFSSQEPYFSYSGAFKCLRDGAGDVAFIRESTVFEDLSDEAERDEYELLCPDNTRKPVDKFKDCHLARVPSHAVVARSVNGKEDAIWNLLRQAQEKFGKDKSPKFQLFGSPSGQKDLLFKDSAIGFSRVPPRIDSGLYLGSGYFTAIQNLRKSEEEVAARRARVVWCAVGEQELRKCNQWSGLSEGSVTCSSASTTEDCIALVLKGEADAMSLDGGYVYTAGKCGLVPVLAENYKSQQSSDPDPNCVDRPVEGYLAVAVVRRSDTSLTWNSVKGKKSCHTAVDRTAGWNIPMGLLFNQTGSCKFDEYFSQSCAPGSDPRSNLCALCIGDEQGENKCVPNSNERYYGYTGAFRCLAENAGDVAFVKDVTVLQNTDGNNNEAWAKDLKLADFALLCLDGKRKPVTEARSCHLAMAPNHAVVSRMDKVERLKQVLLHQQAKFGRNGSDCPDKFCLFQSETKNLLFNDNTECLARLHGKTTYEKYLGPQYVAGITNLKKCSTSPLLEACEFLRK
# Legend:
# [1] = test system: radiant heat-induced tail-flick response in mice; test: Tail flick test, radiant heat-induced pain in mice; type: in vivo
# Method: The tail flick test measures the time (max 15 s) required to elicit a radiant heat-induced tail-flick response in mice. Mice received 1000 mg/kg rhLF or placebo orally 60 minutes prior to test (N=5 per group).
# [2] = test system: phenylquinone-induced writhes in mice; test: Phenylquinone (PQ)-induced writhing test in mice; type: in vivo
# Method: The PQ test measures the number of writhes seen during a 5-10 minute period following IP injection of phenylquinone in mice (2 mg/kg) (N=3). Mice received 1000 mg/kg rhLF or placebo orally 60 minutes prior to test (N=5 per group).
molecule,measurement,setting,value
B1,reduction in pain as measured by number of tail flicks observed,"[1]; 1000 mg/kg orally 60 minutes prior to test, vs placebo (FIG. 1)",statistically significant reduction in pain
same,difference in tail flick response between placebo and treated groups at time zero,"[1]; 1000 mg/kg orally, time zero (FIG. 1)",No difference in response
same,reduction in pain as measured by number of writhes observed,"[2]; 1000 mg/kg orally 60 minutes prior to test, IP phenylquinone 2 mg/kg, writhes during 5-10 minute period, vs placebo (FIG. 2)",reduction in pain
same,difference in writhing response between placebo and treated groups at time zero,"[2]; 1000 mg/kg orally, time zero (FIG. 2)",No difference in response

# From US7638487B2, “Lactoferrin in the reduction of pain” (Agennix, Inc., priority 2002, dated 2009)
